Test: yeast display, Sf9 membrane polyspecificity reagent, FACS + sequencing; frameworks hold sequencing errors
Outline: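 Genes from sorted yeast were amplified by colony PCR, read by MiSeq 2 × 250 sequencing and filtered on CDR length. These cells carried a synthetic nanobody library in Saccharomyces cerevisiae BJ5465 and were sorted by FACS into low and high (top ~1%) gates on anti-HA and streptavidin fluorescence. Polyreactivity is labelled according to the gate of origin.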

Row | Sequence | polyreactivity (PSR sort gate)
1 | QVQLEESGGGLVQAGGTLRLSCAASGRIFSGYAMGWYRQAPGKERELGAAISSSGGSTYYADSVQGRFTISRDNAKNTVYLQMNSLKPEDTAVYYCAASRSRYSVNWYNYWGQGTQVSVSS | high polyreactivity
2 | QVQLVESGGGLVQAGGSLRLSCAASGITFFRNAMGWYRQAPGKERELVAAISRGGGSTYYADSVKGRFTISRDNAKNTVYLQMNSLKPEDTAVYYCAEYKYGTGVKMDYWGQGTQVTVSS | high polyreactivity
3 | QVQLVESGGGLVQAGGSLRLSCAASGFIFYKYAMGWYRQAPGKERELVAAITWRGGRTNYADSVKGRFTISRDYAKNTVYLQMNSLKPEDTAVYYCAADPWSSSYYYSYEYWGQGTQVTVSS | high polyreactivity
4 | QVQLVESGGGLVQAGGSLRLSCAASGRIFRNTMGWYIQAPGKERELVAAITDTTDSTYYADSVKGRFTISRDNAKNTVYLQMYSLKPEDTAVYYCAARYGGYVNRPYYYWGQGTQVTVSS | low polyreactivity
5 | QVQLEESGGGLVQAGGSLRLTCAASGRTFYNNAMGWYRQAPGKERQLVATISKSGGSTNYADSVKGRFTISRDNAKNTVYLQMNSLKPEDNAVYYCAADTSGGSWGRGRWKYGYWGQGTQVTVSS | high polyreactivity
6 | QDQLVESGGGLVQAGGSLRLSCAASGSTRIYAMGWYRRAPRKEMELVAAISWTGGRTYYADSVKGRFTISRDNAKIIVYLQMNSLKPEYTAVYYCAAQYFTFYWKLDYWGQGTQVTVSS | high polyreactivity
7 | QVQLVESGGGLVQAGGSLRLSCAASGFIFIKYAMGWYRQAPGKERELVAAISSSGGSTYYADSVKGRFTISRDNAKNTVYLQMNSLKPEDTAVYYCAARGTWSRYGYWGQGTQVTVSS | high polyreactivity
8 | QVQLVESGGGLVQAGGSLRLSCAASGSIFFSYAMGWYIQAPGKERELVAAITSSVDSTYYADSVKGRFTISRDNAKNTVYLQMNSLKPEDTAVYYCAARYRSGYYRYDYWGQGTQVTVSS | low polyreactivity
9 | QVQLVESGGGLVQAGGSLRISCAASGSTFDIYAMGWYRQAPGKERELVAAISNSGDTYYADSVKGRFTISRDNAKNTVYLQMNSLKPEDTAVYYCNADFHDWFDYWGQGTQVTVSS | high polyreactivity
10 | QDQLVESGGGLVQAGGSLRLSCAASGSIFYWYAMGWYRQAPGKERELVAAISKSGGSTYYADSVKGRFTISRDTAKNTVYLQMNSLKPEDTAVYYCAARYLYQGYRFDYWGQGTQVTVSS | high polyreactivity
11 | QVQLVESGGGLVQAGGSLRLSCAASGSIFSSNAMGWYRQAPGSTNYADSVKGRFTISRDNAKNTVYLQMNSLKPEDTAVYYCAKDYVLFQYVDFQDDDYWGQGTQVTVSS | low polyreactivity
12 | QVHLVESVGGLVQAGGSLRLSCAASGFIFNRNAMGRYRQAPGKERELVAAITRAGSTSYADSVKGRFTISRDNAKNTVYLQMNSLKPEDTGVYYCAAKPFWLYAPRGWRYHYGYWGQGTQVTVSS | high polyreactivity
13 | QVQLVESGGGLVQAGGSLRLSCAASGFTFRTNVMGWYRQAPGKERELVASISSTGSTNYADSVKGRFTISRDNAKNTVYLQMNSLKPEDTAVYYCARRYRYRYNYWGQGTQVTVSS | high polyreactivity
14 | QVQLVESGGGLVQAGGSLRLSCAASGRIFGDNGMGWYRQAPGKERELVTYADSVKGRFTISRDNAKNTVYLQMNSLKAEDTAVYESNKDPPGFSGLDEIYWGQGTQVTVSS | low polyreactivity
15 | QDQLVESGGGLVQAGGSLRLSCAASGFTFYYNAMVLYRQAPGKERELVASISSNGTSTYYADSVKGRFTISLDNEKNTVYLHMNILKPEDTAVHYCNVDIFDPRTYVYWGQGTQVTVSS | low polyreactivity
16 | QVQLVESGGGLVQAGGSLRLSCAATGSTFTAYAMAWYRQAPGKESELVAAIRRIGGDTYYADSVKGRFTISRDNAKNTVYLQMNSLKPEDSAVYYCAAFRWRSPQYWYHSMDHWGQGSQVTVSS | low polyreactivity
17 | QVHLVESGGGLVQAGGSLRLSCAASGRTFYIYAMGWYRQAPGKERELVAGIRWSGDSTYYADSVKGRFTISRDNAKNTVYLQMNRLKPEDTAVYYCAADISYELLSYYWYYYWGQGSQVTVSS | high polyreactivity
18 | QVQLVESGGGLVQAGGSLRLSCAASGRTFTVNAIGWYRQAPGKERELVAAISGRSGRTSYADSVKGRFTISRDNAKNTVYLQMNSLKPEDTAVYYCNASGGYSTGSRYDYWGQGTQVTVSS | high polyreactivity
19 | QVQLVESGGGLVQAGGSLRLTCAASAFIYRRNAMGSYRQAPGKERELVAAITGGGGSTYYADSVKGSFTISRDNAKNTVYLQMNSLKPEDTAVYYCAVDLSRLYNRGGDYWGQGTQVTVSS | high polyreactivity
20 | QVQLVESGGGLVQAGGSLRLSCAASGFTFRFYVMGWYRQAPGKERELVAAISKRGASTSYADSVKGRFTISRDNAKNTVYLQMNSLKPEDTAVYYCAASAKRGEMGYWGQGTQVTVSS | high polyreactivity
21 | QVQLVESGGRLVQAGGSLRLISAASGFTFRAYAMGWYRQAPGKERELVAAINISGGSTYYADSVKGRFTISRDNAKKTVYLKMNSLKPEDTAVYYCAADWPEDWYTEYGYWGQGTQVTVSS | low polyreactivity
22 | QVQLVESGGGLVQAGGSLRLSCAASGRTFGKYAMGWYRQAPGKERELVAAISSGGTTYYADSVKGRFTISRDNAKNTVYLQMNSLKPEDTAVYYCAADPRYPYNYWGQGTQVTVSS | low polyreactivity

Row | Sequence | polyreactivity (PSR sort gate)
23 | QVHLVESRGVLVQAGGSLRLSCAASGRTFQPYAMGWYRQSPGKERELVADITWNTGRTYYADSVKGRFTISRDNAKNTVYLQMNSLIPEDTAVYYCAGDDLGDYRFYKIYDYWGQGTQVTVSS | high polyreactivity
24 | QDQLVESGGGLVQAGGSLRLSCAASGFIFPIYAMGWYRQAPGKERELVAGISGSGTSTYYADSVKGRFTISRDNAKNTVYFLMNSLKPEDTAVYYCNILWRGAARTRWDRGYWGLGTQVTVSS | high polyreactivity
25 | QVQLVESGGGLVQAGGSLRLSCAASGLIFSKNVMGWYRQAPGKERELVAAISQRGGSTYYADSVKGRFTISRDNAKNTVYLQMNSLKPEDTAVYYCAADNTVSHEDYWGQGTQVTVSS | high polyreactivity
26 | QVQLVESGGGLVQAGGSDRLSCAASGRTFDRYAMGWYRQAPGKERELVAAISRGGSTNYADSVKGRFTISRDNAKNTVYLQMNSLKPEDTAVYYCAARVSFLHLRRAYDYWGQGSQVTVSS | high polyreactivity
27 | QVQHVESLGGLVQAGGSLRLSCAASGRTFFGYAMGWYRQEPGKERELVAAISSGGRTYFADSVKGRFTMSRDNAKNTVFLQMNSLKPEDTAVYYCAAQYSARYYYWGLGTQVTVSS | high polyreactivity
28 | QVQLVESGGGLVQAGGSLRLSCAASGSIFYSNAMGWYRQAPGKERELVAAISGSGGTTYYADSVKGRFTISRDNAKNTVYLQMNSLKPEETAVYYCAAKPSVRVRLSDYWGQGTQVTVSS | high polyreactivity
29 | QVQLVESGGGLVQAGGSLRLSCAASGILFRFYAMGWYRQAPGKERELVAAISSGGSTYYADSVKGRFTISRDNAKNTVYLQMNSLKPEDTAVYYCNAGRKSTLVGYVRFYYWGQGTQVTVSS | high polyreactivity
30 | QVQLVESGGGLVQAGGSLRLSCAACGSTFFRNAMGWYRQAPGKERELVAAISKSGTSTYYADSVKGRFTISRDNAKNTVYLQMNSLKPEDTAVYYCAADSRYPWRGDYWGQGTQVTVSS | high polyreactivity
31 | HVQLVESGGGLVQAGGSLRLSCAASGSTFGYYTMGWYREAPGKERELVAAISWSGGSTYYADSVKGRFTISRDNAKNTVYLQMNRLKPEDTAVYYCAALGYTYKYYSYYWGQGTQVTVSS | high polyreactivity
32 | QVHLVESGGGLVQAGGSLRLSCAASGFTYSPYVMGWSRQAPGKEWELVASISKRGGGTYYADSVKGRFTISRDNAKKTFYLQMNRLKPEDTAVYYCNVVTATAYQGVDYWGQGSQVTVSS | high polyreactivity
33 | QVQLVESGGGLVQAGGSLRLSCAASGIIFYVNAMGWYRPAPGKDRELVAAITFGGDSTYYADSVKGRFTITRDNAKNTVYLQMNSLKQEDTAVYYWAAEGLSLGGYYYWGQGTQVTVSS | low polyreactivity
34 | QVQLVESGVGLVQAGGSLRLSCAASGSIFGLYAMGCYRQAPGKERELVAAISTSDTSTYYADSVKGRFTISRDNAKNTVYLQMTSLKQEDTAVYYCAADTYDNFDYSGQGTQVTVSS | low polyreactivity
35 | QDQLVESGGGLVQEGGSLRLSCAASGSTFKNYALGWYRQAPGTERELVAASNVSRARTYYADSVKGRFTLSRDNAKNRVYFQMNSLIPEDTAFYYCAAYYSGVGFDYWGQGTHVTVSS | high polyreactivity
36 | QVQLVESGGGLAQAGGSLRLTCAASGNTFPLYPMGWYRQAPGKERELFAAISQRGGSTYYSDSVKGRFTISRDYAKNTVYLQMNSLKPEDTAFYYCAATWADEYQYRRYYYWGQGTQVTVSS | high polyreactivity
37 | QVQLVESGGGLVQAGGSLRLSCAASGITFTAYAMGWYRHAPGKERELVATINSTGITNYADSVKGRFTISRDNAKNTVYLQMNSLKPEDTAVYYCAADLLDNSSYDGMDYWGQGTQVTVSS | low polyreactivity
38 | QVQLVESGGGLVQAGGRLRLSCAASGRIYGLYAMGWYRQAPGKERELVAAITLSGDGTDYADSVKGRFTISRDNAKNTVYLQMTSLKPDDTAVYYCAKVGQYWWNMDYWGQGTQVTVSS | low polyreactivity
39 | QVQLVESGGGLVQAGGSLRLSCAASGFTFGYYAMGWYRQAPGKERELVAAINYSGGSTYYADSVKGRFTISRDNEKNTVYLQMNSLKPEDTAVYYCAAAVLRTYVPDLYDYWGQGTQVTVSS | high polyreactivity
40 | QVQLVESGGGLVQAGGSLRLSCAASGSTFPGYAMGWYRQAPGKERELVAAINWRGDSTYYADSVKGRFTISRDNAKNTVYLQMNSLKPEDTAVYYCAAKYNHVTDEYDYWGQGTEVTVSS | high polyreactivity
41 | QVQLVESGGGLVKAGGSIRLSCAASGSIFYRNTMGWYRQAPRKERQLVAAISKTGGSTYYSDSVKGRFTISRDNAKNTVYVQMNSLKPEDTAVYYCNRAPYALRVLCTGIISGHDYWGQGTQVTVSS | high polyreactivity
42 | QVQLVESGGGLVQAGGSLRLSCAASGSTFDQYALGRYRQAPGKERELVADITSSDGSTYYADSVKGRFTISRDIAKNTVYLQMNSLKPEDTAVYYCNADYRYIWTYWGWSIYDYWGQGTQVTVSS | high polyreactivity
43 | QVQLVESGGGLVQAGGSLRISSAASGRTFVNYTMGWYRQAPGKERELVAAITSSGGSTYYADSVKGRFTISRDNAKNTVYLQMNSLKPEDTAVYYCASAIFDLSFWLYYWGQGTQVTVSS | low polyreactivity
